Assays:
[1] = target: T1, Env of HIV-1 IMC SF162 on infected CEM.NKR_(CCR5) cells (HIV-1 subtype B SF162, UniProt P19550, strain); test: flow cytometry on cells; details: one partner purified
T1 construct: source: HIV-1 IMC-infected CEM.NKR_(CCR5) cells, on the cell surface

[2] = target: T2, Env of SHIV SF162.P3 on infected A66 cells (SHIV SF162.P3 Env (stand-in: parental …, UniProt P19550, strain)); test: flow cytometry on cells; details: one partner purified
T2 construct: source: SHIV-infected A66 cells, on the cell surface

[3] = target: T3, Env of HIV-1 IMC CH505 on infected CEM.NKR_(CCR5) cells (HIV-1 subtype C CH505 (703010505), strain); test: flow cytometry on cells; details: one partner purified
T3 construct: source: HIV-1 IMC-infected CEM.NKR_(CCR5) cells, on the cell surface

[4] = target: T4, monomeric full length single chain (FLSC), a covalent dimer of gp120BaL and CD4 (HIV-1 subtype B BaL (gp120); Homo …, UniProt Q6TAP7;P01730); test: SPR; Biacore 3000; IgG immobilized on a protein A chip, antigen flowed over (FLSC 6.25-200 nM; gp41 peptide 6.4-25.6 μM; V2 peptide 12.5-50 μM); 10 mM HEPES pH 7.5, 150 mM NaCl, 0.05% Tween 20, 25 °C; 1:1 Langmuir model; details: both partners purified
T4 construct: gp120 of HIV-1 BaL; CD4, domain 1 and 2

[5] = target: synthetic gp41 peptide (residues 596-606) with C-terminal amidation (HIV-1 subtype B BaL, UniProt Q6TAP7)
[6] = target: T5, Env of HIV-1 IMC 1086.C on infected CEM.NKR_(CCR5) cells (HIV-1 subtype C 1086.C, UniProt C6G099, strain); test: flow cytometry on cells; details: one partner purified
T5 construct: also called HIV-1 1086; source: HIV-1 IMC-infected CEM.NKR_(CCR5) cells, on the cell surface

[7] = target: Rh7B2 IgG1 (rhesusized variant of human 7B2) (rhesus macaque (Macaca mulatta)); test: SPR; imaging SPR (IBIS MX96); IgG immobilised on a carboxymethyldextran sensor (CMD200M) by carbodiimide chemistry with a Continuous Flow Microspotter, printed at 300 and 150 nM; soluble receptor as analyte from 20 uM, 1:3 over 8 points; 5 min association and 5 min dissociation; equilibrium KD (Scrubber 2); details: both partners purified
[8] = target: RhDH827 IgG1 (rhesusized variant of human DH827) (rhesus macaque (Macaca mulatta)); test: as above; details: both partners purified
[9] = target: RM JR4 IgG1 (rhesus macaque mAb, C1C2 Cluster A region) (rhesus macaque (Macaca mulatta)); test: as above; details: both partners purified
RM JR4 IgG1 (rhesus macaque mAb, C1C2 Cluster A region) (rhesus macaque (Macaca mulatta)), sequence (heavy, as listed by the source, chain 1 of 2): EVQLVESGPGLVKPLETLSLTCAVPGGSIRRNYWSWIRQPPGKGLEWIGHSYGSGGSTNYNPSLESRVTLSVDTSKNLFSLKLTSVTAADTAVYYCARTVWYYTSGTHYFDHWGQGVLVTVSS
RM JR4 IgG1 (rhesus macaque mAb, C1C2 Cluster A region) (rhesus macaque (Macaca mulatta)), sequence (light, as listed by the source, chain 2 of 2): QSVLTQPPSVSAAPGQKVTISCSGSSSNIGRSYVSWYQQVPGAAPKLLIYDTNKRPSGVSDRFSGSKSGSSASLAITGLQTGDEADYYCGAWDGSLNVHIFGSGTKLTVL

[10] = target: RhDH677.3 IgG1 (rhesusized variant of human DH677.3) (rhesus macaque (Macaca mulatta)); test: as above; details: both partners purified

Binder	binding result [1]	binding result [2]	binding result [3]	fold change of KD against human DH677.3 [4] [fold]	binding result [5]	binding result [6]	Kd [7] [nM]	Kd [8] [nM]	Kd [9] [nM]	Kd [10] [nM]
RhDH677.3 IgG1 (antibody, V domains shown, also called rhesusized DH677.3) VH: QVQLVQSGAEVKKPGASVKLSCKASGYTFTSYDINWVRQAPGQGLEWMGWMNPKTGNTGYAQKFQGRVTMTRDTSTSTAYMELSSLRSEDTAVYYCATYRIIAAVGYRYFQYWGQGALVTVSS VL: AIQMTQSPSSLSASVGDKVTITCRASQGFGNYLAWYQQKPGKVPKLLIYAATTLQSEVPSRFSGSGSGTDFTLTISSLQPEDVATYYCQKYNSAPFTFGQGTRLEIK	binds	binds	binds	~8						
7B2 (antibody, V domains shown) VH: QVQLVQSGGGVFKPGGSLRLSCEASGFTFTEYYMTWVRQAPGKGLEWLAYISKNGEYSKYSPSSNGRFTISRDNAKNSVFLQLDRLSADDTAVYYCARADGLTYFSELLQYIFDLWGQGARVTVSS VL: ETTLTQSPDSLAVSPGERATIHCKSSQTLLYSSNNRHSIAWYQQRPGQPPKLLLYWASMRLSGVPDRFSGSGSGTDFTLTINNLQAEDVAIYYCHQYSSHPPTFGHGTRVELR					binds					
RhDH827 IgG1 (antibody, V domains shown, also called rhesusized DH827) VH: EVQLVESGGGLVQPGGSLRLSCAASGFTFSNCAMHWVRQAPGKGLEWVAVISYHGSNKYYADYVKGRFTISRDNSKNMLYLQMNNLKLEDTAVYYCAREGGAPSGWALDYWGQGVLVTVSS VL: SYELTQSPSVSVSPGQPASITCSGDKLGDKYACWYQQKPGQVPVLVIYEDTKRPSGIPERFSGSNSGNTATLTISGVEAGDEADYYCQAWDSITHVVFGGGTRLTVL	binds	binds	binds			binds				
Rh7B2 IgG1 (antibody, V domains shown, also called rhesusized 7B2) VH: EVQLVESGGGLVQPGGSLRLSCAASGFTFTEYYMSWVRQAPGKGLEWVSYISKNGEYSYYADSVKGRFTISRDNAKNSLSLQMSSLRAEDTAVYYCTRADGLTYFSELLQYIFDLWGQGVLVTVSS VL: DIVMTQSPDSLAVSLGERVTINCKSSQTLLYSSNNRHSIAWYQQKPGQAPKLLIYWASMRLSGVPNRFSGSGSGTDFTLTISGLQAEDVAVYYCHQYSSHPPTFGQGTKVEIK	binds	binds	binds			binds				
rhesus macaque FcγRIIIa-1 (I158) (receptor) EDLPKAVVFLEPQWYRVLEKDSVTLKCQGAYSPEDNSTRWFHNESLISSQTSSYFIAAARVNNSGEYRCQTSLSTLSDPVQLEVHIGWLLLQAPRWVFKEEESIHLRCHSWKNTLLHKVTYLQNGKGRKYFHQNSDFYIPKATLKDSGSYFCRGLIGSKNVSSETVNITITQDLAVSSISSFFPPG							1000	1300	1100	1100
rhesus macaque FcγRIIIa-3 (V158) (receptor, N-glycosylated soluble ectodomain; limits from the UniProt extracellular domain. Mature 158 = precursor 176 (offset 18). Only V158 (against I158 in variant 1) is printed; other allelic differences of) EDLPKAVVFLEPQWYRVLEKDSVTLKCQGAYSPEDNSTRWFHNESLISSQTSSYFIAAARVNNSGEYRCQTSLSTLSDPVQLEVHIGWLLLQAPRWVFKEEESIHLRCHSWKNTLLHKVTYLQNGKGRKYFHQNSDFYIPKATLKDSGSYFCRGLVGSKNVSSETVNITITQDLAVSSISSFFPPG							1600	1900	1600	1500
human FcγRIIa (R131) (receptor) QAAAPPKAVLKLEPPWINVLQEDSVTLTCQGARSPESDSIQWFHNGNLIPTHTQPSYRFKANNNDSGEYTCQTGQTSLSDPVHLTVLSEWLVLQTPHLEFQEGETIMLRCHSWKDKPLVKVTFFQNGKSQKFSRLDPTFSIPQANHSHSGDYHCTGNIGYTLFSSKPVTITVQVPSMGSSSPMG							2900	4600	2000	4600
DH827 (human IgG1) (antibody, V domains shown, also called human DH827) VH: EVQLVESGGGVVQPGRSLRLSCAASGFTFSNCAMHWVRQAPGKGLEWVAVISYHGSNKYYADYVKGRFTISRDNSKSTVYLQMNSPRAEDTAVYYCAKEGGAPSGWALDYWGQGTLVTVSS VL: not shown	binds		binds			binds				

From publication PMC8770954 (Frontiers in Immunology, 2021)
